Like-named read-outs stand apart in the source and are kept apart here.
Assays:
His662 [1] = target: T1, His662 (UniProt position 662, MKQVKHIPESK); experiment: NMR; settings: 35 °C (default for NMR experiments; not restated for the titration), 50 mM NaCl, 20 mM Tris, 10 mM CHAPS, no CaCl2, formate and imidazole included as internal pH indicators, pH adjusted with 1 M HCl, Ca2+-free (apo), Ca2+-binding-deficient mutant, folded
His662 [2] = target: T1, His662; settings: cited from earlier work

Substance | pKa (His662 [1]) | pKa (His662 [2]; Ca2+-bound (holo) WT) | pKa (His662 [2]; Ca2+-free (apo) WT)
LETM1 F-EF-hand domain D676A/N678A (AEA) mutant (Homo sapiens; D676A;N678A) | 6.58 ± 0.06 |  | 
LETM1 F-EF-hand domain, wild type (Homo sapiens) |  | ~6.28 | ~6.39
